Data taken from PMC11367152, “An aptamer‐guided fluorescence polarisation platform for extracellular vesicle liquid biopsy”.

Biological target: HER2 on immobilised SKBR3 EVs (UniProt P04626 23-1255)
Assay: fluorescence polarisation; SKBR3 EVs captured by anti-CD9/CD81; delta FP below LOD; FITC aptamer 5 nM, 1 h, room temperature, in antibody-captured EV wells; aptamers folded in PBS + 1.0 mM MgCl2 (CD63-BP, control) or PBS + 5.0 mM MgCl2 (HER2-HApt); pH not stated
Details: protein: native; tags: none; label: 5'-FITC; folded single strand

Binder: GCGCGAATGGGCGCGC (structured_DNA, 3' inverted dT) [FITC-negative control aptamer]
- binding result: no binding
